Data on 2 proteins can be found in article PMC3172369 (Biochemistry, 2011).

Series [1] deals with the molecule itself. Kind of series: crystal structure.
Series [2] concerns the molecule itself. Kind of series: native gel or EMSA.

B1: human Npm2-core domain (T15-E122) (domain or fragment, UniProt Q86SE8 15-122, looked up)
chain: TTVLWGCELSQERRTWTFRPQLEGKQSCRLLLHTICLGEKAKEEMHRVEILPPANQEDKKMQPVTIASLQASVLPMVSMVGVQLSPPVTFQLRAGSGPVFLSGQERYE
Take B1: in series [1], the “stoichiometry N” value was found to be 5.

B2: Np-core labelled at Cys41 with a DyLight dye (domain or fragment, Xenopus laevis, UniProt P05221 11-124, looked up)
chain: LEKPVSLIWGCELNEQDKTFEFKVEDDEEKCEHQLALRTVCLGDKAKDEFNIVEIVTQEEGAEKSVPIATLKPSILPMATMVGIELTPPVTFRLKAGSGPLYISGQHVAMEEDY
modifications: DyLight 549-maleimide or DyLight 649-maleimide on Cys41
For the protein B2, the “stoichiometry N” value in series [2] amounted to 5.
